# Test results taken from publication PMC3951675 (Journal of molecular biology, 2013).
# B1: isolated regulatory domain of tyrosine hydroxylase (RDTyrH, residues 1-159) (domain or fragment, rat, UniProt P04177 1-159, looked up)
# chain: MPTPSAPSPQPKGFRRAVSEQDAKQAEAVTSPRFIGRRQSLIEDARKEREAAAAAAAAAVASSEPGNPLEAVVFEERDGNAVLNLLFSLRGTKPSSLSRAVKVFETFEAKIHHLETRPAQRPLAGSPHLEYFVRFEVPSGDLAALLSSVRRVSDDVRSA
# B2: regulatory domain of tyrosine hydroxylase lacking the first 64 residues (RDTyrH_(65-159)) (domain or fragment, rat, UniProt P04177 65-159, looked up)
# chain: PGNPLEAVVFEERDGNAVLNLLFSLRGTKPSSLSRAVKVFETFEAKIHHLETRPAQRPLAGSPHLEYFVRFEVPSGDLAALLSSVRRVSDDVRSA
# What was measured:
# AUC = target: the molecule itself; experiment: AUC
# SEC = target: the molecule itself; experiment: SEC
Protein,stoichiometry N (AUC),stoichiometry N (SEC)
B1,2,–
B2,–,2
